Assay [1] concerns the target T1, TGF-β1 (UniProt P01137 279-390).
T1 construct: also called transforming growth factor-beta 1
In words: SPR (Biacore); amine-coupled TGF-β1 on chip, antibody as analyte, kinetic fit. An excerpt: Recombinant mAb1-D10 fusion variants of Example 7 were also quantitatively assessed for TGF-β1 binding using surface plasmon resonance (SPR) as detected by Biacore. Samples containing purified variants were passed over a sensor chip with amine-coupled TGF-β1 to determine the equilibrium constant, KD. A target immobilization level of less than 100 response units (RU) of TGF-β1 was chosen to minimize the potential for avidity effects arising from binding adjacent TGF-β1 molecules on the chip. The level of immobilization was determined by the change in response units after NHS/EDC activation of the chip surface, but before quenching with ethanolamine. The fusion variants, WT fusion variant F1, and mAb1 control were diluted to 30, 10, 3, 1 and 0.37 nM in HBS-EP buffer and passed over the TGF-β1 chip at 30 μL/min for 3 min, followed by 5 min dissociation in the same buffer. Between runs, the chip surface was regenerated to remove any bound antibody by passing two 30 sec injections of 40 mM HCl over the chip at a flow rate of 75 μL/min. […] Unexpectedly, the maximum signal (RU) elicited by the fusion variants decreased with increasing number of peptides, with variant F17 (D10-HC-D10/D10-LC, PAR=6) showing the lowest signal. […] A possible explanation of this decline may reflect electrostatic repulsion between the chip matrix (carboxymethyl dextran) and the negatively charged D10 peptides.
Background: Surface plasmon resonance follows binding to a sensor surface in real time, without labels.

In assay [2] the target is T1, TGF-β1. The assay can be described thus: cell-based or functional assay.
Assay [3] deals with T1, TGF-β1. The assay can be described thus: cell-based or functional assay. This is another data set of the same source.

Where two headings read alike, the source gives them in different places.

The term Kd denotes the concentration at which binding is half-saturated. A high value points to weaker binding. The koff is a measure of how fast the partners let go of each other. A high value points to fast dissociation. A word on the kon: it is a measure of how fast the partners come together. A higher kon goes with fast association.

T1 sequence (P01137 279-390 limits assumed): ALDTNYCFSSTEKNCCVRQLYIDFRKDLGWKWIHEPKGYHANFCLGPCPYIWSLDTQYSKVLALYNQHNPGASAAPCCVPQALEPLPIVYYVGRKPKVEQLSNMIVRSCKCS

B1: mAb1 F7 (antibody, mouse IgG1, kappa)
heavy: HVQLQQSGPELVRPGASVKLSCKASGYIFITYWMNWVKQRPGQGLEWIGQIFPASGSTNYNEMFEGKATLTVDTSSSTAYMQLSSLTSEDSAVYYCARGDGNYALDAMDYWGQGTSVTVSSAKTTPPSVYPLAPGSAAQTNSMVTLGCLVKGYFPEPVTVTWNSGSLSSGVHTFPAVLQSDLYTLSSSVTVPSSTWPSQTVTCNVAHPASSTKVDKKIVPRDCGCKPCICTVPEVSSVFIFPPKPKDVLTITLTPKVTCVVVDISKDDPEVQFSWFVDDVEVHTAQTKPREEQFNSTFRSVSELPIMHQDWLNGKEFKCRVNSAAFPAPIEKTISKTKGRPKAPQVYTIPPPKEQMAKDKVSLTCMITDFFPEDITVEWQWNGQPAENYKNTQPIMDTDGSYFVYSKLNVQKSNWEAGNTFTCSVLHEGLHNHHTEKSLSHSPGKDDDDDDDDDD
light: DDDDDDDDDDNIVLTQSPASLAVSLGQRATISCRASESVDSYGNSFMHWYQQKSGQPPKLLIYLASNLESGVPARFSGSGSRTDFTLTIDPVEADDAATYYCQQNNEDPLTFGAGTKLELKRADAAPTVSIFPPSSEQLTSGGASVVCFLNNFYPKDINVKWKIDGSERQNGVLNSWTDQDSKDSTYSMSSTLTLTKDEYERHNSYTCEATHKTSTSPIVKSFNRNEC
notes: Mouse IgG1 fusion variant, PAR 4; also called HC-D10: D10-LC
Consider B1, for which, in assay [1], the Kd is 5.43 nM, the koff came out at 0.00094 s⁻¹ and the kon was 172000 M⁻¹ s⁻¹. For the same molecule, the “IC50 (read off the curve); IL-11 release by A549 cells in response to TGF-β1” value (“IC50 (read off the curve); IL-11 release” below) in assay [2] was about 0.08 nM.

B2: mAb1 F12 (antibody, mouse IgG1, kappa)
heavy: DDDDDDDDDDHVQLQQSGPELVRPGASVKLSCKASGYIFITYWMNWVKQRPGQGLEWIGQIFPASGSTNYNEMFEGKATLTVDTSSSTAYMQLSSLTSEDSAVYYCARGDGNYALDAMDYWGQGTSVTVSSAKTTPPSVYPLAPGSAAQTNSMVTLGCLVKGYFPEPVTVTWNSGSLSSGVHTFPAVLQSDLYTLSSSVTVPSSTWPSQTVTCNVAHPASSTKVDKKIVPRDCGCKPCICTVPEVSSVFIFPPKPKDVLTITLTPKVTCVVVDISKDDPEVQFSWFVDDVEVHTAQTKPREEQFNSTFRSVSELPIMHQDWLNGKEFKCRVNSAAFPAPIEKTISKTKGRPKAPQVYTIPPPKEQMAKDKVSLTCMITDFFPEDITVEWQWNGQPAENYKNTQPIMDTDGSYFVYSKLNVQKSNWEAGNTFTCSVLHEGLHNHHTEKSLSHSPGK
light: DDDDDDDDDDNIVLTQSPASLAVSLGQRATISCRASESVDSYGNSFMHWYQQKSGQPPKLLIYLASNLESGVPARFSGSGSRTDFTLTIDPVEADDAATYYCQQNNEDPLTFGAGTKLELKRADAAPTVSIFPPSSEQLTSGGASVVCFLNNFYPKDINVKWKIDGSERQNGVLNSWTDQDSKDSTYSMSSTLTLTKDEYERHNSYTCEATHKTSTSPIVKSFNRNEC
notes: Mouse IgG1 fusion variant, PAR 4; also called D10-HC: D10-LC
For B2, the “IC50 (read off the curve); IL-11 release” value in assay [3] was about 0.03 nM. In assay [1], this molecule gave a Kd of 5.41 nM, a koff of 0.00093 s⁻¹ and a kon of 171000 M⁻¹ s⁻¹.

B3: mAb1 F1 (antibody, mouse IgG1, kappa)
heavy: HVQLQQSGPELVRPGASVKLSCKASGYIFITYWMNWVKQRPGQGLEWIGQIFPASGSTNYNEMFEGKATLTVDTSSSTAYMQLSSLTSEDSAVYYCARGDGNYALDAMDYWGQGTSVTVSSAKTTPPSVYPLAPGSAAQTNSMVTLGCLVKGYFPEPVTVTWNSGSLSSGVHTFPAVLQSDLYTLSSSVTVPSSTWPSQTVTCNVAHPASSTKVDKKIVPRDCGCKPCICTVPEVSSVFIFPPKPKDVLTITLTPKVTCVVVDISKDDPEVQFSWFVDDVEVHTAQTKPREEQFNSTFRSVSELPIMHQDWLNGKEFKCRVNSAAFPAPIEKTISKTKGRPKAPQVYTIPPPKEQMAKDKVSLTCMITDFFPEDITVEWQWNGQPAENYKNTQPIMDTDGSYFVYSKLNVQKSNWEAGNTFTCSVLHEGLHNHHTEKSLSHSPGK
light: NIVLTQSPASLAVSLGQRATISCRASESVDSYGNSFMHWYQQKSGQPPKLLIYLASNLESGVPARFSGSGSRTDFTLTIDPVEADDAATYYCQQNNEDPLTFGAGTKLELKRADAAPTVSIFPPSSEQLTSGGASVVCFLNNFYPKDINVKWKIDGSERQNGVLNSWTDQDSKDSTYSMSSTLTLTKDEYERHNSYTCEATHKTSTSPIVKSFNRNEC
notes: Recombinant version of mAb1 without D10 peptide, mouse IgG1, PAR 0; also called Fusion 1; WT
In assay [1], B3 displayed a Kd of 2.51 nM, a koff of 0.00085 s⁻¹ and a kon of 338000 M⁻¹ s⁻¹. Further, the “IC50 (read off the curve); IL-11 release” value in assay [2] is about 0.2 nM.

B4: mAb1 F2 (antibody, mouse IgG1, kappa)
heavy: HVQLQQSGPELVRPGASVKLSCKASGYIFITYWMNWVKQRPGQGLEWIGQIFPASGSTNYNEMFEGKATLTVDTSSSTAYMQLSSLTSEDSAVYYCARGDGNYALDAMDYWGQGTSVTVSSAKTTPPSVYPLAPGSAAQTNSMVTLGCLVKGYFPEPVTVTWNSGSLSSGVHTFPAVLQSDLYTLSSSVTVPSSTWPSQTVTCNVAHPASSTKVDKKIVPRDCGCKPCICTVPEVSSVFIFPPKPKDVLTITLTPKVTCVVVDISKDDPEVQFSWFVDDVEVHTAQTKPREEQFNSTFRSVSELPIMHQDWLNGKEFKCRVNSAAFPAPIEKTISKTKGRPKAPQVYTIPPPKEQMAKDKVSLTCMITDFFPEDITVEWQWNGQPAENYKNTQPIMDTDGSYFVYSKLNVQKSNWEAGNTFTCSVLHEGLHNHHTEKSLSHSPGK
light: DDDDDDDDDDNIVLTQSPASLAVSLGQRATISCRASESVDSYGNSFMHWYQQKSGQPPKLLIYLASNLESGVPARFSGSGSRTDFTLTIDPVEADDAATYYCQQNNEDPLTFGAGTKLELKRADAAPTVSIFPPSSEQLTSGGASVVCFLNNFYPKDINVKWKIDGSERQNGVLNSWTDQDSKDSTYSMSSTLTLTKDEYERHNSYTCEATHKTSTSPIVKSFNRNEC
notes: Mouse IgG1 fusion variant, PAR 2; also called WT-HC: D10-LC
In assay [1], B4 came in with a Kd of 6.01 nM, a koff of 0.001 s⁻¹ and a kon of 166000 M⁻¹ s⁻¹. In addition, the “IC50 (read off the curve); IL-11 release” value in assay [2] was about 0.2 nM.

B5: mAb1 F6 (antibody, mouse IgG1, kappa)
heavy: HVQLQQSGPELVRPGASVKLSCKASGYIFITYWMNWVKQRPGQGLEWIGQIFPASGSTNYNEMFEGKATLTVDTSSSTAYMQLSSLTSEDSAVYYCARGDGNYALDAMDYWGQGTSVTVSSAKTTPPSVYPLAPGSAAQTNSMVTLGCLVKGYFPEPVTVTWNSGSLSSGVHTFPAVLQSDLYTLSSSVTVPSSTWPSQTVTCNVAHPASSTKVDKKIVPRDCGCKPCICTVPEVSSVFIFPPKPKDVLTITLTPKVTCVVVDISKDDPEVQFSWFVDDVEVHTAQTKPREEQFNSTFRSVSELPIMHQDWLNGKEFKCRVNSAAFPAPIEKTISKTKGRPKAPQVYTIPPPKEQMAKDKVSLTCMITDFFPEDITVEWQWNGQPAENYKNTQPIMDTDGSYFVYSKLNVQKSNWEAGNTFTCSVLHEGLHNHHTEKSLSHSPGKDDDDDDDDDD
light: NIVLTQSPASLAVSLGQRATISCRASESVDSYGNSFMHWYQQKSGQPPKLLIYLASNLESGVPARFSGSGSRTDFTLTIDPVEADDAATYYCQQNNEDPLTFGAGTKLELKRADAAPTVSIFPPSSEQLTSGGASVVCFLNNFYPKDINVKWKIDGSERQNGVLNSWTDQDSKDSTYSMSSTLTLTKDEYERHNSYTCEATHKTSTSPIVKSFNRNEC
notes: Mouse IgG1 fusion variant, PAR 2; also called HC-D10: WT-LC; mAb1-D10
As to B5, in assay [1], the Kd came out at 4.58 nM, the koff was 0.00084 s⁻¹ and the kon is 182000 M⁻¹ s⁻¹. The “IC50 (read off the curve); IL-11 release” value in assay [2] was about 0.2 nM.

B6: mAb1 F16 (antibody, mouse IgG1, kappa)
heavy: DDDDDDDDDDHVQLQQSGPELVRPGASVKLSCKASGYIFITYWMNWVKQRPGQGLEWIGQIFPASGSTNYNEMFEGKATLTVDTSSSTAYMQLSSLTSEDSAVYYCARGDGNYALDAMDYWGQGTSVTVSSAKTTPPSVYPLAPGSAAQTNSMVTLGCLVKGYFPEPVTVTWNSGSLSSGVHTFPAVLQSDLYTLSSSVTVPSSTWPSQTVTCNVAHPASSTKVDKKIVPRDCGCKPCICTVPEVSSVFIFPPKPKDVLTITLTPKVTCVVVDISKDDPEVQFSWFVDDVEVHTAQTKPREEQFNSTFRSVSELPIMHQDWLNGKEFKCRVNSAAFPAPIEKTISKTKGRPKAPQVYTIPPPKEQMAKDKVSLTCMITDFFPEDITVEWQWNGQPAENYKNTQPIMDTDGSYFVYSKLNVQKSNWEAGNTFTCSVLHEGLHNHHTEKSLSHSPGKDDDDDDDDDD
light: NIVLTQSPASLAVSLGQRATISCRASESVDSYGNSFMHWYQQKSGQPPKLLIYLASNLESGVPARFSGSGSRTDFTLTIDPVEADDAATYYCQQNNEDPLTFGAGTKLELKRADAAPTVSIFPPSSEQLTSGGASVVCFLNNFYPKDINVKWKIDGSERQNGVLNSWTDQDSKDSTYSMSSTLTLTKDEYERHNSYTCEATHKTSTSPIVKSFNRNEC
notes: Mouse IgG1 fusion variant, PAR 4; also called D10-HC-D10: WT-LC
B6: in assay [3], the “IC50 (read off the curve); IL-11 release” value was about 0.02 nM. Also, in assay [1], the Kd was 6.88 nM, the koff came out at 0.0011 s⁻¹ and the kon was found to be 159000 M⁻¹ s⁻¹.

B7: mAb1 F11 (antibody, mouse IgG1, kappa)
heavy: DDDDDDDDDDHVQLQQSGPELVRPGASVKLSCKASGYIFITYWMNWVKQRPGQGLEWIGQIFPASGSTNYNEMFEGKATLTVDTSSSTAYMQLSSLTSEDSAVYYCARGDGNYALDAMDYWGQGTSVTVSSAKTTPPSVYPLAPGSAAQTNSMVTLGCLVKGYFPEPVTVTWNSGSLSSGVHTFPAVLQSDLYTLSSSVTVPSSTWPSQTVTCNVAHPASSTKVDKKIVPRDCGCKPCICTVPEVSSVFIFPPKPKDVLTITLTPKVTCVVVDISKDDPEVQFSWFVDDVEVHTAQTKPREEQFNSTFRSVSELPIMHQDWLNGKEFKCRVNSAAFPAPIEKTISKTKGRPKAPQVYTIPPPKEQMAKDKVSLTCMITDFFPEDITVEWQWNGQPAENYKNTQPIMDTDGSYFVYSKLNVQKSNWEAGNTFTCSVLHEGLHNHHTEKSLSHSPGK
light: NIVLTQSPASLAVSLGQRATISCRASESVDSYGNSFMHWYQQKSGQPPKLLIYLASNLESGVPARFSGSGSRTDFTLTIDPVEADDAATYYCQQNNEDPLTFGAGTKLELKRADAAPTVSIFPPSSEQLTSGGASVVCFLNNFYPKDINVKWKIDGSERQNGVLNSWTDQDSKDSTYSMSSTLTLTKDEYERHNSYTCEATHKTSTSPIVKSFNRNEC
notes: Mouse IgG1 fusion variant, PAR 2; also called D10-HC: WT-LC
On to B7, for which the “IC50 (read off the curve); IL-11 release” value in assay [3] is about 0.07 nM. In assay [1], this molecule registered a Kd of 5.62 nM, a koff of 0.00092 s⁻¹ and a kon of 164000 M⁻¹ s⁻¹.
